From article PMC10397247
One block for each binder: values may come before it.

What was measured:
4H380-AA = biological target: T1, 4H380-AA; experiment: two-hybrid library CCmax; conditions: mean of both orientations;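 also: natural log of median RNA to DNA barcode read ratio; higher means stronger binding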
T1 chain: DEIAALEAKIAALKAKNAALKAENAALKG

4H3629-AA = biological target: T2, 4H3629-AA; experiment: two-hybrid library CCmax; conditions: mean of both orientations;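 also: natural log of median RNA to DNA barcode read ratio; higher means stronger binding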
T2 chain: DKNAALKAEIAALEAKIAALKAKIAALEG

4H3969-AA = biological target: T3, 4H3969-AA; experiment: two-hybrid library CCmax; conditions: mean of both orientations;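 also: natural log of median RNA to DNA barcode read ratio; higher means stronger binding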
T3 chain: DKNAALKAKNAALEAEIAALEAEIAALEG

4H446-AA = biological target: T4, 4H446-AA; experiment: two-hybrid library CCmax; conditions: mean of both orientations;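 also: natural log of median RNA to DNA barcode read ratio; higher means stronger binding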
T4 chain: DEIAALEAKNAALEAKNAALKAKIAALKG

4H483-AA = biological target: T5, 4H483-AA; experiment: two-hybrid library CCmax; conditions: mean of both orientations;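 also: natural log of median RNA to DNA barcode read ratio; higher means stronger binding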
T5 chain: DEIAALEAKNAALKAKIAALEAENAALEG

4H2728-AA = biological target: T6, 4H2728-AA; experiment: two-hybrid library CCmax;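 also: natural log of median RNA to DNA barcode read ratio; higher means stronger binding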
T6 chain: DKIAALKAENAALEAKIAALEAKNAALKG

4H464-AA = biological target: T7, 4H464-AA; experiment: two-hybrid library CCmax; conditions: mean of both orientations
T7 chain: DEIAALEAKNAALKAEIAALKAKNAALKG

4H3782-AA = biological target: T8, 4H3782-AA; experiment: two-hybrid library CCmax; conditions: mean of both orientations
T8 chain: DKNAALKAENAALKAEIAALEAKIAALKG

4H3414-AA = biological target: T9, 4H3414-AA; experiment: two-hybrid library CCmax; conditions: mean of both orientations
T9 chain: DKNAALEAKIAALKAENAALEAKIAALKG

4H63-AA = biological target: T10, 4H63-AA; experiment: two-hybrid library CCmax; conditions: mean of both orientations
T10 chain: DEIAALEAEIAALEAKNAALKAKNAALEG

4H3595-AA = biological target: T11, 4H3595-AA; experiment: two-hybrid library CCmax; conditions: mean of both orientations
T11 chain: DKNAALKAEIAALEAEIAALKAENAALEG

4H2961-AA = biological target: T12, 4H2961-AA; experiment: two-hybrid library CCmax; conditions: mean of both orientations
T12 chain: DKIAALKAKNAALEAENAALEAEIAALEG

4H3129-AA = biological target: T13, 4H3129-AA; experiment: two-hybrid library CCmax; conditions: mean of both orientations
T13 chain: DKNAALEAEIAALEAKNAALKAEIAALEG

4H3049-AA = biological target: T14, 4H3049-AA; experiment: two-hybrid library CCmax; conditions: mean of both orientations
T14 chain: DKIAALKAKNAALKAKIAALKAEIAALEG

4H2903-AA = biological target: T15, 4H2903-AA; experiment: two-hybrid library CCmax; conditions: mean of both orientations
T15 chain: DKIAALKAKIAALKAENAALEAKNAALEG

4H2774-AA = biological target: T16, 4H2774-AA; experiment: two-hybrid library CCmax; conditions: mean of both orientations
T16 chain: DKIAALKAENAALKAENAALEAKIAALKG

4H341-AA = biological target: T17, 4H341-AA; experiment: two-hybrid library CCmax; conditions: mean of both orientations
T17 chain: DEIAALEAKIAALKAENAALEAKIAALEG

4H3939-AA = biological target: T18, 4H3939-AA; experiment: two-hybrid library CCmax; conditions: mean of both orientations
T18 chain: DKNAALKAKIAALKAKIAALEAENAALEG

4H3705-AA = biological target: T19, 4H3705-AA; experiment: two-hybrid library CCmax; conditions: mean of both orientations
T19 chain: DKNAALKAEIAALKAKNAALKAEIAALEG

GCN2_T = experiment: two-hybrid library CCmax
4H465-AA = biological target: T20, 4H465-AA; experiment: two-hybrid library CCmax; conditions: mean of both orientations
T20 chain: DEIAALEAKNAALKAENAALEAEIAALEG

4H_BCR = biological target: T21, 4H_BCR; experiment: two-hybrid library CCmax; conditions: mean of both orientations
T21 chain: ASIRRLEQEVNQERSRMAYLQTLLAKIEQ

4H486-AA = biological target: T22, 4H486-AA; experiment: two-hybrid library CCmax; conditions: mean of both orientations
T22 chain: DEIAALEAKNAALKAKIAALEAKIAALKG

4H_GCN4 = experiment: two-hybrid library CCmax; conditions: mean of both orientations
4H895-AA = biological target: T23, 4H895-AA; experiment: two-hybrid library CCmax; conditions: mean of both orientations
T23 chain: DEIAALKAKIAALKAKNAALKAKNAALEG

4H535-AA = biological target: T24, 4H535-AA; experiment: two-hybrid library CCmax; conditions: mean of both orientations
T24 chain: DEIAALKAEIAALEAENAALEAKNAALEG

4H58-AA = biological target: T25, 4H58-AA; experiment: two-hybrid library CCmax; conditions: mean of both orientations
T25 chain: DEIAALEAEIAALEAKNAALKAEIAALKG

4H3651-AA = biological target: T26, 4H3651-AA; experiment: two-hybrid library CCmax
T26 chain: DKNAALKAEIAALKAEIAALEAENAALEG

4H_APH = biological target: T27, 4H_APH; experiment: two-hybrid library CCmax; conditions: mean of both orientations
T27 chain: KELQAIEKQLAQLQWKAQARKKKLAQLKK

O9 = biological target: T28, O9; experiment: two-hybrid library CCNG1
T28 chain: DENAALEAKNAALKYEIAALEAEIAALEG

O5 = biological target: T29, O5; experiment: two-hybrid library CCNG1
T29 chain: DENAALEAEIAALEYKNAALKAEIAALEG

O7 = biological target: T30, O7; experiment: two-hybrid library CCNG1
T30 chain: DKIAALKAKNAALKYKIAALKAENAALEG

O8 = biological target: T31, O8; experiment: two-hybrid library CCNG1
T31 chain: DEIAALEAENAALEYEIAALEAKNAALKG

O6 = biological target: T32, O6; experiment: two-hybrid library CCNG1
T32 chain: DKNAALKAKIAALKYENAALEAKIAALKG

Sequence of 4H_GCN4 (chain, as listed by the source): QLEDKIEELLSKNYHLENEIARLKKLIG

interaction score (4H380-AA): -1.69
interaction score (4H3629-AA): -0.438
interaction score (4H3969-AA): -1.14
interaction score (4H446-AA): -0.989
interaction score (4H483-AA): 2.24
interaction score (4H2728-AA): -0.514
interaction score (4H464-AA): 0.651
interaction score (4H3782-AA): -1.28
interaction score (4H3414-AA): -1.03
interaction score (4H63-AA): -0.35
interaction score (4H3595-AA): -1.57
interaction score (4H2961-AA): -1.41
interaction score (4H3129-AA): 0.939
interaction score (4H3049-AA): 0.953
interaction score (4H2903-AA): -1.25
interaction score (4H2774-AA): -1.68
interaction score (4H341-AA): -0.899
interaction score (4H3939-AA): -1.01
Binder: DKIAALKAENAALEAKIAALEAKNAALKG [4H2728-AA]

interaction score (4H3705-AA): -1.53
interaction score (GCN2_T): -1.92
interaction score (4H465-AA): -1.28
interaction score (4H_BCR): -1.92
interaction score (4H486-AA): -0.82
interaction score (4H3782-AA): -0.2
interaction score (4H_GCN4): -1.81
interaction score (4H895-AA): 2.08
interaction score (4H535-AA): -1.16
interaction score (4H58-AA): -0.388
interaction score (4H3651-AA): -0.561
interaction score (4H_APH): -1.76
Binder: DKNAALKAEIAALKAEIAALEAENAALEG [4H3651-AA]

interaction score (O9): -2.25
interaction score (O5): -2.36
interaction score (O7): -2.16
interaction score (O8): -2.4
interaction score (O6): 1.32
Binder: DENAALEAEIAALEYKNAALKAEIAALEG [O5]
